Test results as given in publication PMC6561789 (Molecular microbiology, 2019).
Where a chain is given by its changes, count along the chain named. In names and notes the source's numbering stands.

B1: HigA antitoxin (Proteus vulgaris, Rts1 plasmid), wild type (natural protein)
chain: MRQFKVSHPGEMIARDLEDMGVSGRRFAHNIGVTPATVSRLLAGKTALTPSLSIRIAAALGSTPEFWLRLQSNYDLRQLENQIDTSGIVLYGESNEQQQNAQEH
B2: HigA R40A variant (Proteus vulgaris, Rts1 plasmid) (natural protein)
chain: B1 chain with R40A

Assays:
AUC = target: the molecule itself; experiment: AUC
SEC = target: the molecule itself; experiment: SEC

| Protein | stoichiometry N (AUC) | stoichiometry N (SEC) |
| --- | --- | --- |
| B1 | 2 | – |
| B2 | – | 2 |
